In patent US20180362585A1 (Bicycle, published 2018):
Where two headings read alike, the source gives them in different places. Numbered stars: 1 amine (or outer) side, 2 acyl side, 3 side chain; on linkers, the order of the positions; unused ones are H or OH. Bridge positions count the residues as written; N and C are the ends. Ends that are not written are not given here. TBMB = c1c(C[*:1])cc(C[*:3])cc1C[*:2]

B1: Ac-(06-34-18) A2A3 (peptide)
peptide: Ac-CSAAARCLHQDLC-NH2
modifications: linker 1-7-13 via TBMB
SMILES: CC(=O)N[C@H]1CSCc2cc3cc(c2)CSC[C@H](NC(=O)[C@H](CCCNC(=N)N)NC(=O)[C@H](C)NC(=O)[C@H](C)NC(=O)[C@H](C)NC(=O)[C@H](CO)NC1=O)C(=O)N[C@@H](CC(C)C)C(=O)N[C@@H](Cc1c[nH]cn1)C(=O)N[C@@H](CCC(N)=O)C(=O)N[C@@H](CC(=O)O)C(=O)N[C@@H](CC(C)C)C(=O)N[C@H](C(N)=O)CSC3
B2: Ac-(06-34-18) A2Q3 (peptide)
peptide: Ac-CSAQARCLHQDLC-NH2
modifications: linker 1-7-13 via TBMB
SMILES: CC(=O)N[C@H]1CSCc2cc3cc(c2)CSC[C@H](NC(=O)[C@H](CCCNC(=N)N)NC(=O)[C@H](C)NC(=O)[C@H](CCC(N)=O)NC(=O)[C@H](C)NC(=O)[C@H](CO)NC1=O)C(=O)N[C@@H](CC(C)C)C(=O)N[C@@H](Cc1c[nH]cn1)C(=O)N[C@@H](CCC(N)=O)C(=O)N[C@@H](CC(=O)O)C(=O)N[C@@H](CC(C)C)C(=O)N[C@H](C(N)=O)CSC3
B3: Ac-(06-34-18) Scram3 (peptide)
peptide: Ac-CAPWSRCLHQDLC-NH2
modifications: linker 1-7-13 via TBMB
SMILES: CC(=O)N[C@H]1CSCc2cc3cc(c2)CSC[C@H](NC(=O)[C@H](CCCNC(=N)N)NC(=O)[C@H](CO)NC(=O)[C@H](Cc2c[nH]c4ccccc24)NC(=O)[C@@H]2CCCN2C(=O)[C@H](C)NC1=O)C(=O)N[C@@H](CC(C)C)C(=O)N[C@@H](Cc1c[nH]cn1)C(=O)N[C@@H](CCC(N)=O)C(=O)N[C@@H](CC(=O)O)C(=O)N[C@@H](CC(C)C)C(=O)N[C@H](C(N)=O)CSC3
B4: Ac-(06-34-18) Scram4 (peptide)
peptide: Ac-CWARSPCLHQDLC-NH2
modifications: linker 1-7-13 via TBMB
SMILES: CC(=O)N[C@H]1CSCc2cc3cc(c2)CSC[C@H](NC(=O)[C@@H]2CCCN2C(=O)[C@H](CO)NC(=O)[C@H](CCCNC(=N)N)NC(=O)[C@H](C)NC(=O)[C@H](Cc2c[nH]c4ccccc24)NC1=O)C(=O)N[C@@H](CC(C)C)C(=O)N[C@@H](Cc1c[nH]cn1)C(=O)N[C@@H](CCC(N)=O)C(=O)N[C@@H](CC(=O)O)C(=O)N[C@@H](CC(C)C)C(=O)N[C@H](C(N)=O)CSC3
B5: Ac-(06-34-18) Phe2 Tyr4 Thr7 Thr8 Glu9 (peptide)
peptide: Ac-CSFPYRCLTTELC-NH2
modifications: linker 1-7-13 via TBMB
SMILES: CC(=O)N[C@H]1CSCc2cc3cc(c2)CSC[C@H](NC(=O)[C@H](CCCNC(=N)N)NC(=O)[C@H](Cc2ccc(O)cc2)NC(=O)[C@@H]2CCCN2C(=O)[C@H](Cc2ccccc2)NC(=O)[C@H](CO)NC1=O)C(=O)N[C@@H](CC(C)C)C(=O)N[C@@H]([C@@H](C)O)C(=O)N[C@@H]([C@@H](C)O)C(=O)N[C@@H](CCC(=O)O)C(=O)N[C@@H](CC(C)C)C(=O)N[C@H](C(N)=O)CSC3
notes: also called loop 2 LTTEL
B6: Ac-(06-34-18) Scram1 (peptide)
peptide: Ac-CPSAWRCLHQDLC-NH2
modifications: linker 1-7-13 via TBMB
SMILES: CC(=O)N[C@H]1CSCc2cc3cc(c2)CSC[C@H](NC(=O)[C@H](CCCNC(=N)N)NC(=O)[C@H](Cc2c[nH]c4ccccc24)NC(=O)[C@H](C)NC(=O)[C@H](CO)NC(=O)[C@@H]2CCCN2C1=O)C(=O)N[C@@H](CC(C)C)C(=O)N[C@@H](Cc1c[nH]cn1)C(=O)N[C@@H](CCC(N)=O)C(=O)N[C@@H](CC(=O)O)C(=O)N[C@@H](CC(C)C)C(=O)N[C@H](C(N)=O)CSC3
B7: 06-34-04 (peptide)
peptide: ACRWPARCMHQDLCA
modifications: linker 2-8-14 via TBMB; not fully specified (N-terminus, C-terminus)
B8: 06-34-17 (01 + 04) (peptide)
peptide: ACSWPARCMHQDLCA
modifications: linker 2-8-14 via TBMB; not fully specified (N-terminus, C-terminus)
B9: 06-34-18 (01 + 05) (peptide)
peptide: ACSWPARCLHQDLCA
modifications: linker 2-8-14 via TBMB; not fully specified (N-terminus, C-terminus)
B10: 06-34-05 (peptide)
peptide: ACRWPARCLHQDLCA
modifications: linker 2-8-14 via TBMB; not fully specified (N-terminus, C-terminus)
B11: Ac-(06-34-18) Scram2 (peptide)
peptide: Ac-CWASPRCLHQDLC-NH2
modifications: linker 1-7-13 via TBMB
SMILES: CC(=O)N[C@H]1CSCc2cc3cc(c2)CSC[C@H](NC(=O)[C@H](CCCNC(=N)N)NC(=O)[C@@H]2CCCN2C(=O)[C@H](CO)NC(=O)[C@H](C)NC(=O)[C@H](Cc2c[nH]c4ccccc24)NC1=O)C(=O)N[C@@H](CC(C)C)C(=O)N[C@@H](Cc1c[nH]cn1)C(=O)N[C@@H](CCC(N)=O)C(=O)N[C@@H](CC(=O)O)C(=O)N[C@@H](CC(C)C)C(=O)N[C@H](C(N)=O)CSC3

Assays:
human plasma Kallikrein [1] = target: T1, human plasma Kallikrein (human, UniProt P03952 20-638); experiment: enzyme inhibition
T1 construct: also called hPK; human PK
Procedure: (§1) Functional enzyme assays were conducted in 10 mM Tris HCl, 150 mM NaCl, 10 mM MgCl2, 1 mM CaCl₂) and 1 mg/mL BSA (all Sigma UK) pH7.4 at 25° C. in solid black 96 well plates. […] Release of AMC was measured using a Pherastar FS (BMG Labtech), excitation 360 nm, emission 460 nm. The rate of the linear phase of the reaction, typically 5 to 45 minutes, was calculated in MARS data analysis software (BMG labtech). The rate was then used to calculate the IC50 and Ki in Prism (GraphPad).
Crucially, such modifications should not affect the potency against human or rat Kallikrein. An initial exploration regarding the role of the WPAR (SEQ ID No. 19) sequence/pharmacophore (FIG. 9, 10) was performed by replacing W₂P₃ with A₂A₃ or A₂Q₃ and by scrambling parts or the entire first loop of the bicycle.

human plasma Kallikrein [2] = target: T1, human plasma Kallikrein; experiment: enzyme inhibition; remark: listed apart in the source
Procedure: as §1

human plasma Kallikrein [3] = target: T1, human plasma Kallikrein; experiment: enzyme inhibition; ref WT
Procedure: as §1

rat plasma Kallikrein = target: T2, rat plasma Kallikrein (rat, UniProt P14272 391-638, limits assumed); experiment: enzyme inhibition
T2 construct: domain: catalytic domain; also called rPK; rat PK
Procedure: as §1

T2 sequence (P14272 391-638 limits assumed): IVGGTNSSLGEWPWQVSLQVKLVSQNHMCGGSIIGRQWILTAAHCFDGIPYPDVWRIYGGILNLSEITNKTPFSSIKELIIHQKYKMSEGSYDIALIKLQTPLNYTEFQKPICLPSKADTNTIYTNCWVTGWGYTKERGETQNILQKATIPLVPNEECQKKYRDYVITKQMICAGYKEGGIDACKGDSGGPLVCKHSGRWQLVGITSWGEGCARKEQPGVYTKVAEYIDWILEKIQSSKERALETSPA
T1 sequence (P03952 20-638 limits assumed): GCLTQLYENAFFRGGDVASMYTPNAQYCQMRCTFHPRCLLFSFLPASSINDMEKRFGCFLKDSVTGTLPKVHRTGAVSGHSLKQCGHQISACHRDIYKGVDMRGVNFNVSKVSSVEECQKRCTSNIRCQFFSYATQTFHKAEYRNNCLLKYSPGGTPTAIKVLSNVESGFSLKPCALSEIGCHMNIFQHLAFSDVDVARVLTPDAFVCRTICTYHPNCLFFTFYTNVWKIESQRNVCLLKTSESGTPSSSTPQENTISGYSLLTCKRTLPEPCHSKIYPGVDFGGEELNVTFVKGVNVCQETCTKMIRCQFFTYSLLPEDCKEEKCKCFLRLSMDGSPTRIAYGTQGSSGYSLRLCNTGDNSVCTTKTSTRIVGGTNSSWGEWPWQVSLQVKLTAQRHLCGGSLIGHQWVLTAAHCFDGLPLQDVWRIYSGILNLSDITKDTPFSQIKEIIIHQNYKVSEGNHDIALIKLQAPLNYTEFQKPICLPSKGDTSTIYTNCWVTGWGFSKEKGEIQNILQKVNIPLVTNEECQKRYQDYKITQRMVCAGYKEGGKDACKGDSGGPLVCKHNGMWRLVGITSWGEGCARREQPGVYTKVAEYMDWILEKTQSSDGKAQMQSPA

Binder | Ki (human plasma Kallikrein [1]) [nM] | IC50 (rat plasma Kallikrein) [nM] | IC50 (human plasma Kallikrein [2]) [nM] | further results
B1 | 18500 |  |  | fold reduction in binding vs wildtype (human plasma Kallikrein [2]): ~100000 fold
B2 | 15800 |  |  | fold reduction in binding vs wildtype (human plasma Kallikrein [2]): ~100000 fold
B3 | 1890 |  |  | 
B4 | 67500 |  |  | 
B5 |  |  |  | F (Kivar/KiWT) (human plasma Kallikrein [3]): 193 fold; Ki (human plasma Kallikrein [2]): 81 nM
B6 | 1090 |  |  | 
B7 |  | 0.56 | 0.075 | 
B8 |  | 0.44 | 0.073 | 
B9 |  | 0.56 | 0.07 | Ki (human plasma Kallikrein [2]): 0.04 nM
B10 |  | 0.62 | 0.076 | 
B11 | 11400 |  |  | 
